Source: publication PMC5986207

Target: human HER2 extracellular domain, soluble, His-tagged (human)
Assay: AUC; multisignal sedimentation velocity (MSSV), 4:1 molar loading of HER2 to antibody (5.8:1.4 μM), PBS, 20 °C, 42,000 rpm, UV 280 and 250 nm and interference, SEDPHAT

- stoichiometry N (HER2 per MEDI4276 (2:1)): 2
- stoichiometry N (HER2 per MEDI4276 (5:3)): 1.67
Substance: MEDI4276, anti-HER2 biparatopic, monospecific, tetravalent antibody (trastuzumab scFv on the N terminus of the 39S heavy chain) (bispecific antibody)
